In this test the target is RFP-VAP27-1 (Arabidopsis) (UniProt Q8VZ95). The test can be described thus: FRET or BRET. A general note: Bioluminescence resonance energy transfer reports proximity on the nanometre scale.

This note sets out measurements from article doi:10.1101/2022.02.25.481886.

UniProt Q8VZ95, sequence (Q8VZ95 whole entry): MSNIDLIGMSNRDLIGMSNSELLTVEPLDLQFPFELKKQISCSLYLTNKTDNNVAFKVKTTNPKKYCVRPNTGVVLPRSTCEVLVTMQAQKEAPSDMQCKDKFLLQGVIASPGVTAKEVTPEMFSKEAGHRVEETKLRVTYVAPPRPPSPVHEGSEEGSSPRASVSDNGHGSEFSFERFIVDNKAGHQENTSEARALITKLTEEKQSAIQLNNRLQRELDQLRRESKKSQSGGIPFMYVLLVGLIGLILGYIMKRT

The substance GFP-TraB1b (natural protein) yielded a fluorescence lifetime of the GFP donor with the RFP acceptor of 2.21 ns.
